# Reference: patent US20230192818A1
# Assays:
# [1] = biological target: biotinylated SARS-CoV-2 S1 variant P.1 (Example 5) (SARS-CoV-2) (UniProt P0DTC2); test: phage ELISA screening
# [2] = biological target: biotinylated SARS-CoV-2 S1 variant B.1.351 (Example 5) (SARS-CoV-2) (UniProt P0DTC2); test: phage ELISA screening
Binder,ELISA [1],ELISA [2]
"13-3 (antibody, V domains shown) VH: QVQLVESGGGVVQPGRSLRLSCAASGFSFNNHAMHWVRQAPGKGLEWVAVISYDGSDKYYADSVKGRFTISRDNSKNTLYLQMNSLRAEDTAVYYCARNLLRGYGMDVWGQGTLVTVSS VL: DIQMTQSPSSLSASVGDRVTITCRASQSIGDYLNWYQQKPGKAPKLLIYEASSLQSGVPSRFSGSGSGTDFTLTISSLQPEDFATYYCLHTYLPPYSFGQGTKVEIK",19.5,
"13-4 (antibody, V domains shown) VH: QVQLVESGGGVVQPGRSLRLSCAASGFAFDDYAMHWVRQAPGKGLEWVAVISYDGSNKYYADSVKGRFTISRDNSKNTLYLQMNSLRAEDTAVYYCATLGYGDYPDYWGQGTLVTVSS VL: DIQMTQSPSSLSASVGDRVTITCRASQSITRYLNWYQQKPGKAPKLLIYAASSLQSGVPSRFSGSGSGTDFTLTISSLQPEDFATYYCQQTYNFPHTFGQGTKVEIK",18.9,
"12-42 (antibody, V domains shown) VH: QVQLVESGGGVVQPGRSLRLSCAASGFTFGSYGMHWVRQAPGKGLEWVAVISYDGSHKYYADSVKGRFTISRDNSKNTLYLQMNSLRAEDTAVYYCARALGGNYYYFDYWGQGTLVTVSS VL: EIVLTQSPATLSLSPGERATLSCRASQSVDSRLAWYQQKPGQAPRLLIYDTSNRATGIPARFSGSGSGTDFTLTISSLEPEDFAVYYCQQRSSNWTFGGGTKVEIK",,4.93
"13-1 (antibody, V domains shown) VH: QVQLVESGGGVVQPGRSLRLSCAASGFTFSSYSMHWVRQAPGKGLEWVAVISYDGRNQYYADSVKGRFTISRDNSKNTLYLQMNSLRAEDTAVYYCAKGYGGNYYYMDGWGQGTLVTVSS VL: EIVLTQSPATLSLSPGERATLSCRASQSVGDFLAWYQQKPGQAPRLLIYDTSNRATGIPARFSGSGSGTDFTLTISSLEPEDFAVYYCQQRSIRGTFGGGTKVEIK",22.2,
"12-43 (antibody, V domains shown) VH: QVQLVESGGGVVQPGRSLRLSCAASGFIFSSYGMHWVRQAPGKGLEWVAVISYDGSNEYYADSVKGRFTISRDNSKNTLYLQMNSLRAEDTAVYYCARPRSGSYLSAFDYWGQGTLVTVSS VL: EIVLTQSPATLSLSPGERATLSCRASQSVGKSLAWYQQKPGQAPRLLIYDTSNRATGIPARFSGSGSGTDFTLTISSLEPEDFAVYYCQQRGSFPLTFGGGTKVEIK",,4.82
"13-5 (antibody, V domains shown) VH: QVQLVESGGGVVQPGRSLRLSCAASGFIFRSYAMHWVRQAPGKGLEWVAVISYDGSSKYYADSVKGRFTISRDNSKNTLYLQMNSLRAEDTAVYYCARPLGGGYQDAFDIWGQGTLVTVSS VL: EIVLTQSPATLSLSPGERATLSCRASQSIGSYLAWYQQKPGQAPRLLIYDVSNRATGIPARFSGSGSGTDFTLTISSFEPEDFAVYYCQQRHHWPPVTFGGGTKVEIK",10.3,
